The data set deals with the molecule itself. The data set is described as follows: crystal structure; hanging drop vapor diffusion at 18 °C; 25% PEG3350, 50 mM Tris pH8.5, 200 mM di-sodium tartrate; no reducing agents present; space group P1, eight molecules in the asymmetric unit.

B1: glucocorticoid receptor (GR) DNA binding domain (DBD), residues 418–517 (domain or fragment, UniProt P04150 418-517, looked up)
chain: PKLCLVCSDEASGCHYGVLTCGSCKVFFKRAVEGQHNYLCAGRNDCIIDKIRRKNCPACRYRKCLQAGMNLEARKTKKKIKGIQQATTGVSQETSENPGN
notes: In the crystal two molecules are linked by a disulfide bridge via Cys431 (no reducing agents during crystallization); Each molecule holds two Zn2+; Mixed with a 35 nt RNA hairpin before crystallization, but no nucleic acid was found in the crystal; also called GR DBD; free GR DBD; not shown: His6-Sumo, N-terminal, cleaved
On to B1, for which the binding result is recorded as “binds”.
